Values of other authors, collected in PMC4479967 (Journal of molecular neuroscience : MN, 2015).

Conditions: Src-dependent; ref Daulhac et al., 1999

B1: CCK: cholecystokinin (peptide, UniProt P06307 21-115, looked up)
Cholecystokinin: QPVPPADPAGSGLQRAEEAPRRQLRVSQRTDGESRAHLGALLARYIQQARKAPSGRMSIVKNLQNLDPSHRISDRDYMGWMDFGRRSAEEYEYPS
Q: For B1, which “Effect on ERK-1 and p85/p110-PI-3-K” value is on record?
A: causes activation
